This is an account of results in the DeepSol protein solubility set.

The data set is described as follows: soluble on expression in E. coli; label from the status in PepcDB or PDB records.
Regarding “MSLAATNKRHSTSDKMHFPRSSLQPITTLGKSEFGEVFLAKAQGLEEGVAETLVLVKSLQSKDEQQQLDFRRELEMFGKLNHANVVRLLGLCREAEPHYMVLEYVDLGDLKQFLRISKSKDEKLKSQPLSTKQKVALCTQVALGMEHLSNNRFVHKDLAARNCLVSAQRQVKVSALGLSKDVYNSEYYHFRQAWVPLRWMSPEAILEGDFSTKSDVWAFGVLMWEVFTHGEMPHGGQADDEVLADLQAGKARLPQPEGCPSKLYRLMQRCWALSPKDRPSFSEIASALGDSTVDSKEGHHHHHH”, the “soluble on expression in E. coli” value is reported as “soluble”.

Take “MDHAPERFDATPPAGEPDRPALGVLELTSIARGITVADAALKRAPSLLLMSRPVSSGKHLLMMRGQVAEVEESMIAAREIAGAGSGALLDELELPYAHEQLWRFLDAPVVADAWEEDTESVIIVETATVCAAIDSADAALKTAPVVLRDMRLAIGIAGKAFFTLTGELADVEAAAEVVRERCGARLLELACIARPVDELRGRLFF”: the “soluble on expression in E. coli” value is given as “not soluble”.

For “MEEWVREQYGMRVERLERSGRHAAFWHRQERFLLVPADGQSEAEMEERQQMSRYLRAKGVDGVGELVKTTSGTYIASYNGQPLALVRAPLPASRFRSLGRELAVMHECGRTCPWPIVACRRIGQWRELWAKRIDQMEAFWSSKLASGPSSLFDRLFIESFPYYLGLAENAVQYVADTEIDEEPGRIDYAAFCHERLPEAKWVGGGEAKLPTDWVYDHCARDLAEWVRHLYEKSGLGCQRAVRQFFQEYEHAAPLSPFAWRLVYARLLFPLSYFECVEAYYIAVDESERTRREGELRRLLDRSHEYERFLASFAKIAGISNRIRLPAVEWLPPA”, the “soluble on expression in E. coli” value is on record as “not soluble”.

For the sequence “MGSDKIHHHHHHMTAIRVTITQVKGSAPRDTGTSMLVFADRIEGTIGGGALEWEAMRLARDMLRNGTSVTTHTFPLGPALGQCCGGVVKLELQAATQWKGVEKTPIWIWGAGHVGRAIIHTLSPFSALDLSWIDTAADRFPADIPNDTHRLIATDPPRLMPHAPPNAHHLIATYSHDIDLALCHAALTHGFASAGVIGSATKWARFRKRLGQMGHSGAQISRIMCPIGDPGLGKHPQAIAIGVAARLLGEQMLQESAQHLKDVDHGGT”, the “soluble on expression in E. coli” value was “not soluble”.

Take “MAHHHHHHSLMLKKNDIIQVAISDLSHEGAGVAKHDGFVFFVDNALPEEVIDMRVLKVNKNSGFGKVEAYHYLSSARNADVNLTYLRTGIADLGHLTYEDQLTFKKKQVQDSLYKIAGISDVTVESTIGMTEPLAYRNKAQVPVRRVNGQLETGFFRKHSHDLIPISDYYIQDKEIDRLINFTRDLLRRFDIKPYDETEQTGLLRNIVVRRGHYSGEMMLVLVTTRPKVFRVDQVIEKIVEAFPAVVSIIQNINDKNTNAIFGKDFKTLYGKDTITDSMLGNNYAISAQSFYQVNTVMAEKLYQTAIAFSDLSKDDIVIDAYSGIGTIGLSFAKTVKAVYGVEVIEAAVRDAQQNAALNGITNAYFVADTAEHAMATWAKDGIKPSVILVDPPRKGLTESFIQASVAMGPQKITYVSCNPATMARDIKRYQELGYKLAKVQPVDLFPQTHHVECVVLLIKEEG”: the “soluble on expression in E. coli” value is reported as “not soluble”.

In the case of “MRLTKLAATIGCVTLSGLALVACSSDSTAGTDAVAVGGTFQFHSPDGKMEIFYDEADRQQLPDIGGDSLMEEGTQINLSDFENQVVILNAWGQWCAPCRSESDDLQIIHEELQAAGNGDTPGGTVLGINVRDYSRDIAQDFVTDNGLDYPSIYDPPFMTAASLGGVPASVIPTTIVLDKQHRPAAVFLREVTSKDVLDVALPLVDEA”, the “soluble on expression in E. coli” value is on record as “not soluble”.

Consider “MNKYQAVIIGFGKAGKTLAVTLAKAGWRVALIEQSNAMYGGTCINIGCIPTKTLVHDAQQHTDFVRAIQRKNEVVNFLRNKNFHNLADMPNIDVIDGQAEFINNHSLRVHRPEGNLEIHGEKIFINTGAQTVVPPIPGITTTPGVYDSTGLLNLKELPGHLGILGGGYIGVEFASMFANFGSKVTILEAASLFLPREDRDIADNIATILRDQGVDIILNAHVERISHHENQVQVHSEHAQLAVDALLIASGRQPATASLHPENAGIAVNERGAIVVDKRLHTTADNIWAMGDVTGGLQFTYISLDDYRIVRDELLGEGKRSTDDRKNVPYSVFMTPPLSRVGMTEEQARESGADIQVVTLPVAAIPRARVMNDTRGVLKAIVDNKTQRMLGASLLCVDSHEMINIVKMVMDAGLPYSILRDQIFTHPSMSESLNDLFSLVK”, for which the “soluble on expression in E. coli” value is on record as “soluble”.

Turning to “MSLSKKIVIVGGVAGGASTAARLRRLDENNQIIMFERGPHVSFSNCCLPYYLSGKVENHEDLVLMTPEKFYSQYRIDARVYTEVVSINRKAKEVTVRNVVSGQEYTESYDKLVLSPGAKAIVPPIKGIEDVNVFTVRNVVDIAKLDSFIKDNNSKNISVIGGGFIGVEVAENLHEAGYNVTLIEAMDQIMKPFDYDMVQVLHKEMYDKGVNLIVGDKVSSFESGKVVLESGKKINSDAVVMAIGVAPETDLAREAGLEIGQTGAIKVNQNYLTNDKDIYAVGDAVEVYNSLTNSISRLPLAGPAQKQARAVADHIHGRPSRNSGYIGSSCVQIFDYNGASTGLTEGQIKAMNLSLNYDVVRVIPQDKVGLMPGSEPLHFKLIFEVPTGRILGAQAIGKGNADKRVDIIATLIKMGGTVEDLKDLELCYAPPFGTAKDVVNHAALVASNLLEGTFKQVYVHEVRDLVESGACIIDVREVSEYEAGHIKGAKNLPLSEIRDRLDEIPTDRPVYLHCRSAQRSYNACLALQHLGFDNIYNVSGGFMGISFYEYYNDKVQDREPIVTEYNFNEGHHHHHH”, the “soluble on expression in E. coli” value was “soluble”.

“MASVASCDSRPSSDELPGDPSSQEEDEDYDFEDRVSDSGSYSSASSDYDDLEPEWLDSVQKNGELFYLELSEDEEESLLPETPTVNHVRFSENEIIIEDDYKERKKYEPKLKQFTKILRRKRLLPKRCNKKNSNDNGPVSILKHQSNQKTGVIVQQRYKDVNVYVNPKKLTVIKAKEQLKLLEVLVGIIHQTKWSWRRTGKQGDGERLVVHGLLPGGSAMKSGQVLIGDVLVAVNDVDVTTENIERVLSCIPGPMQVKLTFENAYDVKRETSHPRQKKTQSNTSDLVKLLWGEEVEGIQQSGLNTPHIIMYLTLQLDSETSKEEQEILYHYPMSEASQKLKSVRGIFLTLCDMLENVTGTQVTSSSLLLNGKQIHVAYWKESDKLLLIGLPAEEIELPSSAHTHGERN”: the “soluble on expression in E. coli” value was “soluble”.

On to “MSLKARTKIEKQVAASNEKLTAISPKVMTWAVRKVAGHVCFRTSAHKCTCGECGRQFDYEGKGKSVCCPYCGTRLQIKDTLKRTIKEAYYFSSLEVIDHLQVQRVFRLETTFRKGLPMEVDYWEACRLWLNAEGKSAVTARARTLSYYVDCFDWASEITLKRPNEVHWLIADTYVYPHYRLLPELKRNGMKGKLPDCYPMKLMKAVLTDSRMETILKSKDLHAVSYFVNRPLELDRCWQSYKVATRHHYRPSDMGLWADTIRLLEQCGKDICSPRYICPQNLKAEHDYWMNRHNQMEQKRRSQEQIQRAKRKEAEFYKEKSRYFGITITDKDLVISVLDTLEAFQAEGNALHHCVFQCEYYAKADSLILSAHDKEGNRIETIEFSLTEGKVIQSRGLCNTNTPHHDRIVRLVNAHAHQILAAKQTAEGHHHHHH”, for which the “soluble on expression in E. coli” value was “not soluble”.

For “MDTSSVGGLELTDQTPVLLGSTAMATSLTNVGNSFSGPANPLVSRSNKFQNSSVEDDDDVVFIEPVQPPPPSVPVVADQRTITFTSSKNEELQGNDSKITPSSKELASQKGSVSETIVIDDEEDMETNQGQEKNSSNFIERRPPETKNRTNDVDFSTSSFSRSKTKTGVGPFNPGRMNVAGDVFQNGESATHHNPDSWISQSASFPRNQKQPGVDSLSPVASLPKQIFQPSVQQQPTKPVKVTCANCKKPLQKGQTAYQRKGSAHLFCSTTCLSSFSHKPAPKKLCVMCKKDITTMKGTIVAQVDSSESFQEFCSTSCLSLYEDKQNPTKGALNKSRCTICGKLTEIRHEVSFKNMTHKLCSDHCFNRYRMANGLIMNCCEQCGEYLPSKGAGNNVLVIDGQQKRFCCQSCVSEYKQVGSHPSFLKEVRDHMQDSFLMQPEKYGKLTTCTGCRTQCRFFDMTQCIGPNGYMEPYCSTACMNSHKTKYAKSQSLGIICHFCKRNSLPQYQATMPDGKLYNFCNSSCVAKFQALSMQSSPNGQFVAPSDIQLKCNYCKNSFCSKPEILEWENKVHQFCSKTCSDDYKKLHCIVTYCEYCQEEKTLHETVNFSGVKRPFCSEGCKLLYKQDFARRLGLRCVTCNYCSQLCKKGATKELDGVVRDFCSEDCCKKFQDWYYKAARCDCCKSQGTLKERVQWRGEMKHFCDQHCLLRFYCQQNEPNMTTQKGPENLHYDQGCQTSRTKMTGSAPPPSPTPNKEMKNKAVLCKPLTMTKATYCKPHMQTKSCQTDDTWRTEYVPVPIPVPVYIPVPMHMYSQNIPVPTTVPVPVPVPVFLPAPLDSSEKIPAAIEELKSKVSSDALDTELLTMTDMMSEDEGKTETTNINSVIIETDIIGSDLLKNSDPETQSSMPDVPYEPDLDIEIDFPRAAEELDMENEFLLPPVFGEEYEEQPRPRSKKKGAKRKAVSGYQSHDDSSDNSECSFPFKYTYGVNAWKHWVKTRQLDEDLLVLDELKSSKSVKLKEDLLSHTTAELNYGLAHFVNEIRRPNGENYAPDSIYYLCLGIQEYLCGSNRKDNIFIDPGYQTFEQELNKILRSWQPSILPDGSIFSRVEEDYLWRIKQLGSHSPVALLNTLFYFNTKYFGLKTVEQHLRLSFGTVFRHWKKNPLTMENKACLRYQVSSLCGTDNEDKITTGKRKHEDDEPVFEQIENTANPSRCPVKMFECYLSKSPQNLNQRMDVFYLQPECSSSTDSPVWYTSTSLDRNTLENMLVRVLLVKDIYDKDNYELDEDTD”, the “soluble on expression in E. coli” value is listed as “soluble”.

On to “MTEIERKFLVATFPDGELHAVPLRQGYLTTPTDSIELRLRQQGTEYFMTLKSEGGLSRQEYEIQIDVTQFEMLWPATEGRRVEKTRYSGKLPDGQLFELDVFAGHLSPLMLVEVEFLSEDAAQAFIPPPWFGEEVTEDKRYKNKALALSIP”, for which the “soluble on expression in E. coli” value is recorded as “soluble”.

With “MTALKVGSESWWQSKHGPEWQRLNDEMFEVTFWWRDPQGSEEYSTIKRVWVYITGVTDHHQNSQPQSMQRIAGTDVWQWTTQLNANWRGSYCFIPTERDDIFSAPSPDRLELREGWRKLLPQAIADPLNPQSWKGGLGHAVSALEMPQAPLQPGWDCPQAPEIPAKEIIWKSERLKNSRRVWIFTTGDVTAEERPLAVLLDGEFWAQSMPVWPVLTSLTHRQQLPPAVYVLIDAIDTTHRAHELPCNADFWLAVQQELLPLVKVIAPFSDRADRTVVAGQSFGGLSALYAGLHWPERFGCVLSQSGSYWWPHRGGQQEGVLLEKLKAGEVSAEGLRIVLEAGIREPMIMRANQALYAQLHPIKESIFWRQVDGGHDALCWRGGLMQGLIDLWQPLFHDRS”, the “soluble on expression in E. coli” value is reported as “soluble”.

With “RPQTTNSWQNSEIEGIDIMLAIDVSTSMLAEDLKPNRLEAAKDVAAEFINGRPNDNIGITLFAGESFTQCPLTVDHAVLLNLFQGIQCDIIEDGTAVGMGIANAVTRLKDSKAKSKVIILLTDGTNNKGDISPLTAAEIAKSFGIRVYTIGVGTNGMAPYPVRVGGTTQYINTPVEIDEKTLTQIAGTTDGNYFRATSNSKLKEVYEEI”, the “soluble on expression in E. coli” value is listed as “not soluble”.

For “MGSDKIHHHHHHMPARPNHLSNNIVFRDGVQVMRMDLHVHTEVSHDCQTRLRDIPAWLLRTNTRVIAITDHDEQRGGPELKRLVADLGLADRLSIIPGEEITTSEGELIGLFLEERIPPGLTPEATVQEIKAQGGLVLLQHGFDPLKRYRLRPEATQRIADQIDMVETFNSRLSRHHWNRVAAEWARARHLPVCAGSDAHTLRDIGEAWVETPFRLIHTPEQLLQALDEGVVGGRWTHPVYAYGLKQWRNLNGRFQRKD”, the “soluble on expression in E. coli” value is on record as “not soluble”.
